Patent US6528283 (INSTITUTE NATIONAL DE LA SANT ET DE LA RECHERCHE M DICALE, dated 2003)
Where two headings read alike, the source gives them in different places.

T1: GAL4 DNA-binding domain alone (empty pAS2-1 vector, negative control bait) (UniProt P04386 1-47, limits assumed)
T1 chain (looked up): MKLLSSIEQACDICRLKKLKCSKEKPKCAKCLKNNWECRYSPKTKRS

B1: hD53 interactor (GAL4 activation domain fused to full-length hD53, pACT2hD53) (other)
chain: ANFNQSGNIADSSLSFTFTNSSNGPNLITTQTNSQALSQPIASSNVHDNFMNNEITASKIDDGNNSKPLSPGWTDQTAYNAFGITTGMFNTTTMDDVYNYLFDDEDTPPNPKKEMEAQAQGLLETEPLQGTDEDAVASADFSSMLSEEEKEELKAELVQLEDEITTLRQVLSAKERHLVEIKQKLGMNLMNELKQNFSKSWHDMQTTTAYKKTHETLSHAGQKATAAFSNVGTAISKKFGDMSYSIRHSISMPAMRNSPTFKSFEERVETTVTSLKTKVGGTNPNGGSFEEVLSSTAHASAQSLAGGSRRTKEEELQC
B2: mD52(95-185) bait (GAL4 DNA-binding domain fused to the C-terminal half of mD52, pAS2-1mD52(95-185)) (other)
chain: MKLLSSIEQACDICRLKKLKCSKEKPKCAKCLKNNWECRYSPKTKRSAYKKTSETLSQAGQKASAAFSSVGSVITKKLEDVKNSPTFKSFEEKVENLKSKVGGAKPAGGDFGEVLNSTANATSTMTTEPPPEQMTESP
notes: range 1-47
B3: hD52 bait (GAL4 DNA-binding domain fused to full-length hD52, pAS2-1hD52) (other)
chain: MKLLSSIEQACDICRLKKLKCSKEKPKCAKCLKNNWECRYSPKTKRSMDRGEQGLLRTDPVPEEGEDVAATISATETLSEEEQEELRRELAKVEEEIQTLSQVLAAKEKHLAEIKRKLGINSLQELKQNIAKGWQDVTATSAYKKTSETLSQAGQKASAAFSSVGSVITKKLEDVKNSPTFKSFEEKVENLKSKVGGTKPAGGDFGEVLNSAANASATTTEPLPEKTQESL
notes: range 1-47; Fusion expressed in yeast; also called pAS2-1D52; full-length hD52 bait

Key:
[1] = molecular target: T2, mD52 bait (GAL4 DNA-binding domain fused to full-length mD52, pAS2-1mD52) (mouse, UniProt P04386 1-47 (Saccharomyces cerevisiae entry), limits assumed); assay: cell-based or functional assay
[2] = molecular target: B2; assay: cell-based or functional assay
[3] = molecular target: mD52(1-95) bait (GAL4 DNA-binding domain fused to the N-terminal half of mD52, pAS2-1mD52(1-95)) (mouse, UniProt P04386 1-47 (Saccharomyces cerevisiae entry)); assay: cell-based or functional assay
[4] = molecular target: hD54-ins2 bait (GAL4 DNA-binding domain fused to hD54-ins2, pAS2-1hD54-ins2) (human, UniProt P04386 1-47 (Saccharomyces cerevisiae entry), limits assumed); assay: cell-based or functional assay
[5] = molecular target: T2, mD52 bait (GAL4 DNA-binding domain …); assay: cell-based or functional assay; remark: listed apart in the source
[6] = molecular target: hD53 bait (GAL4 DNA-binding domain fused to full-length hD53, pAS2-1hD53) (human, UniProt P04386 1-47 (Saccharomyces cerevisiae entry), limits assumed); assay: cell-based or functional assay
[7] = molecular target: T1, GAL4 DNA-binding domain alone (empty …); assay: cell-based or functional assay
[8] = molecular target: hD54+ins2 bait (GAL4 DNA-binding domain fused to hD54+ins2, pAS2-1hD54+ins2) (human, UniProt P04386 1-47 (Saccharomyces cerevisiae entry), limits assumed); assay: cell-based or functional assay
[9] = molecular target: B3; assay: cell-based or functional assay
[10] = molecular target: eukaryotic initiation factor 4AII library interactor (pAD-GAL4 construct) (human, UniProt P04386 761-881; Q14240 1-407, limits assumed); assay: yeast two-hybrid, retransfection of a library interactor in Hf7c
Description: Transformants were plated onto solid SD/-His-Trp-Leu (incorporating 35 mM 3-AT in the case of Y190 transformants) and incubated for up to 14 days at 30° C. […] Colonies which remained His+, and in the case of Y190 co-transformants, were also lacZ+, were re-streaked onto fresh plates to check that all colonies were of uniform phenotype. After 6 days incubation at 30° C., yeast colonies were directly harvested, and plasmid DNA was isolated and used to transfect XL1 Blue. Mini-preparations of plasmid DNA were performed for at least 5 XL1 Blue colonies per transfection, with the results of restriction digests differentiating potential interactors from bait plasmids. […] Phenotypes of resulting co-transfectants were assayed quantitatively and/or qualitatively as described above.

[11] = molecular target: B1; assay: yeast two-hybrid, quantitative β-galactosidase assay in Y190
Description: Interactions between baits and interactors were assessed by qualitatively and/or quantitatively determining HIS3 and lacZ reporter gene activity in Y190 co-transfectants. […] For quantitative assessment of interactions, β-galactosidase activity was measured using the substrate o-nitrophenyl β-D-galactopyranoside (ONPG) in liquid cultures (SD/-His-Trp-Leu +35 mM 3-AT) of Y190 co-transfectants.

Binder | β-galactosidase activity, yeast two-hybrid (Y190) [1] | β-galactosidase activity, yeast two-hybrid (Y190) [2] | β-galactosidase activity, yeast two-hybrid (Y190) [3] | β-galactosidase activity, yeast two-hybrid (Y190) [4] | β-galactosidase activity, yeast two-hybrid (Y190) [5] | β-galactosidase activity, yeast two-hybrid (Y190) [6] | β-galactosidase activity, yeast two-hybrid (Y190) [7] | β-galactosidase activity, yeast two-hybrid (Y190) [8] | β-galactosidase activity, yeast two-hybrid (Y190) [9] | binding result [10] | binding result [11]
B1 | 5.44 β-galactosidase activity units (positive control = 1000) | 0.5 β-galactosidase activity units (positive control = 1000) | 6.95 β-galactosidase activity units (positive control = 1000) | 17.6 β-galactosidase activity units (positive control = 1000) | 6.07 β-galactosidase activity units (positive control = 1000) | 18.1 β-galactosidase activity units (positive control = 1000) | 0 β-galactosidase activity units (positive control = 1000) | 11.7 β-galactosidase activity units (positive control = 1000) | 15.2 β-galactosidase activity units (positive control = 1000) |  | 
B2 |  |  |  |  |  |  |  |  |  | no binding | no binding
B3 |  |  |  |  |  |  |  |  |  | no binding | 
